# According to patent US11001824:
# T1: denatured bovine pancreatic Ribonuclease B, P61823
# T1 chain: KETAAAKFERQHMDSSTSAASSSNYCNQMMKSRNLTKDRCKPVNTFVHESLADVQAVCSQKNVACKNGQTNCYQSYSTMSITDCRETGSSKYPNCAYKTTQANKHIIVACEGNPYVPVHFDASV
# Biological target: T1, denatured bovine pancreatic …
Protein,Deglycosylation Activity on RNase B (gel shift assay),N-glycanase activity assay (gel shift)
wild-type PNGase F from Flavobacterium meningosepticum (protein) GIPAPADNTVNIKTFDKVKNAFGDGLSQSAEGTFTFPADVTAVKTIKMFIKNECPNKTCDEWDRYANVYVKNKTTGEWYEIGRFITPYWVGTEKLPRGLEIDVTDFKSLLSGNTELKIYTETWLAKGREYSVDFDIVYGTPDYKYSAVVPVVQYNKSSIDGVPYGKAHTLALKKNIQLPTNTEKAYLRTTISGWGHAKPYDAGSRGCAEWCFRTHTIAINNSNTFQHQLGALGCSANPINNQSPGNWTPDRAGWCPGMAVPTRIDVLNNSLIGSTFSYEYKFQNWTNNGTNGDAFYAISSFVIAKSNTPISAPVVTNLDPHHHHHH,100%,PNGase F completely de-glycosylates 1 µg of RNase B under the assay conditions described
PNGase F D60A single point mutant (protein) GIPAPADNTVNIKTFDKVKNAFGDGLSQSAEGTFTFPADVTAVKTIKMFIKNECPNKTCDEWARYANVYVKNKTTGEWYEIGRFITPYWVGTEKLPRGLEIDVTDFKSLLSGNTELKIYTETWLAKGREYSVDFDIVYGTPDYKYSAVVPVVQYNKSSIDGVPYGKAHTLALKKNIQLPTNTEKAYLRTTISGWGHAKPYDAGSRGCAEWCFRTHTIAINNSNTFQHQLGALGCSANPINNQSPGNWTPDRAGWCPGMAVPTRIDVLNNSLIGSTFSYEYKFQNWTNNGTNGDAFYAISSFVIAKSNTPISAPVVTNLDPHHHHHH,13.4%,–
